Source: the nanobody polyreactivity screen of Harvey et al. (2022)

Test: yeast display, Sf9 membrane polyspecificity reagent, FACS + sequencing; frameworks hold sequencing errors
Method in brief: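 After 36–48 hours of galactose induction, yeast (Saccharomyces cerevisiae BJ5465) displaying a synthetic nanobody library were stained at 4 °C for 1 hour with 10% biotinylated, detergent-solubilized Sf9 membrane reagent. Streptavidin microbeads enriched the stained cells before FACS sorting into low and high (top ~1%) gates on anti-HA and streptavidin fluorescence. Each clone's polyreactivity label reflects its gate of origin.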

Row | Sequence | polyreactivity (PSR sort gate)
1 | QVQLVEAGGGLVQAGGSLRLSCAASGSIFAQNVRGWSRQAPGKERELVAAISYSGGTTYYADSVKGRFTISRDNAMNTVYLQMNSLKPEDTAVYDCAAEFGVYEYDYWGQGTQVTVSS | low polyreactivity
2 | QDHLVESGGGLVQAGGSLRLSCAASGSIFGLYAMGWYRQSPGKERELVAAISFSGDTYYADSVKGRFTISRDNAKNTVYLQMNSLKPEDTAVYYCAAEDWYEYDYWGQGTQVTVSS | high polyreactivity
3 | QDQLVESGGGLVQAGGSLRLSCAASALIFSLNAMGWYRQAPGTERELVAAISSDDSTYYADSVKGRFTISRDNAKNTVYLQMNSLKPEDTAVYYCAAVQLVPGYVDSNDYYWGQGTQVTVSS | low polyreactivity
4 | EVQLVESGGGLVQAGGSLRLICAASGRTFQNYAMGWYRQAPGKERELVADITSGGSTYADSVKGRFTISRDNAKNTVYLQMNSLKPEDTAVYYCNADRTYPEPAEYYYWGQGTQVTVSS | low polyreactivity
5 | QVQLVESGGGLVQAGGSLRLSCAASGSTFVVYAMGWSRQAPGKERELVAAISTSDTSTYYADSVKGRFTISRDNAKNTVYLQMNSLKPEDTAVYYCAADGTYVYINEYEYWGQGTQVTVSS | low polyreactivity
6 | QVQLVESGGGLVQAGGSLRLSCAASGITFQGYTIGWYRQAPGKERELVAAISSNGGRTYYADSVKGRFTISRDNAKNTVYLQMNSLKPEDTAVYYCAARKWRLIVDYWGQGTQVTVSS | high polyreactivity
7 | QVQLVESGGGLVQAGGSLRLSCAASGSIFRRYTMGWYRQAPGKEREFVAVISRDGGSTYYADSVKGRFTISRDNAKNTVYLQMNSLKPEDTAVYYCAARLVRRYDYDYWGQGTQVTVSS | high polyreactivity
8 | QVQLVESGGGLVQAGGSHRLSCAASGSIFQSYAMGWYRQAPGKERELVAAIDRSGTSTYYADSVKGRFTISRDNAKNTVYLQMNSLKPEDTAVYYCNTLRRSWQMDYWGQGTQVTVSS | low polyreactivity
9 | QVQLVESGGGLVQAGGSLRLSCAASGFIFGYNDMGWYRQAPGKERELVAAINSGGSTYYADSVKGRFTISRDNAKNTVYLQMNSLKPEDTAVYYCAADYGYFEYDYWGQGTQVTVSS | low polyreactivity
10 | QVQLVESGGGLVQAGGSLRLSCAASGLIFGVNAMGWYRQAPGKEMELVAAITSRGGSTYYADSVKGRFTISRDNAKNTVYLQMNSLKPEDTAVYYCAAKYAYYEPYSWRPQRTYNYWGQGTQVTVSS | high polyreactivity
11 | QVQLVESGGGLVQAGGSLRLSCAASGSTFVDNAMGWYRQAPGKERELVADISSGGSTYYADSVKGRFTISRDNAKNTVYLQMNSLKPEDTAVYYCAARRITSTDEYYWGQGTQVTVSS | high polyreactivity
12 | QFQLVESGGGLVQAGGSLRLSCAASGRTFASNAMGWYRQAPGKERELVADITWDGGRTYYADSVKGRFTISRDNAKNTVYLQMNSLKPEDTAVYYCAARDTFPRRYGYWGQGTQVTVSS | high polyreactivity
13 | QVQRVESGGALVQAGGSHRLSCAASGSIFYAYAMGWYRLAPGKERELVAAIRSSDSRTYYADSVKGRFTISRDNAKKTVYLQMNCLKPEETAVYYCAAEGSRNVKFDYCGQGTQVTVSS | high polyreactivity
14 | QVQLEESGGGLVQAGGSLRLSCAASGSTFHTYAMGWYRQAPGKERELVASISYGVTTYYADSVKGRFTISRDNAKNTVYLQMNSLTPEDTAVYYCAREGYNWVYLSYGYWGQGTQVTVSS | low polyreactivity
15 | QVQLVESGGGLVQAGGSLRLSCAASGSIIYYYAMGWYRQAPGKERELVAAIRGGGSTNYADSVKGRFTISRDNAKNTVYLQMNSLKPEDTAVYYCNADYRNDCGTPLWYAYNYWGQGTQVTVSS | low polyreactivity
16 | QVQLVESGGGLVQAGGSLRLSCAASGNTFVSNAMGWYRQAPGKERELVAAIDSGGSTNYADSVKGRFTISRDNEKNTVYLQMKSLKPEDTAVYYCNRTSVYYYYWGQGTQVTVSS | low polyreactivity
17 | QVQLVESGGGLVQAGGSLRLICAASGSTYRGYAMGWYRQAPGKERELVAAISYISGGTYYADSVKGRFTISRDNAKYTVYLQMNSLKPEDTAVYYCAVGSHSRSSNSYYYWGQGTQVTVSW | low polyreactivity
18 | QVQLEDSGGGLVQAGGSLRLSCAASGRIFTRYAMGWYRQAPGKERELVAVITRSGGSTYYADSVKGRFTISRDNAKNTVYLQMNSLKPEDTAVYYCAARYYWSVYADQGDYWGQGTQVTVSS | low polyreactivity
19 | QVQLVESGGGLVQAGGSLRVSCAASGRILPRYAMGWYRQAPGKEREFVARIDSGGSTNYADSVKGRFTISRDNAKNTVYIQMNSLKPEDTAVYYCAAVGTAQAYAYFTYGYDYWGQGTQVTVSS | low polyreactivity
20 | QVQLVESGGGIVQAGGSLRLSCAASGRIFLTNAMGWYRQAPGKERELVAAITSGGSTYYADSVKGRFTISRDNAKNTVYLQMNSLKPEDTAVFYCNADTDRYWPYEYDYWGQGTQVTVSS | low polyreactivity
21 | QVQLVESGGGLVQAGGRLRLSCVASGSIFSGNAMGWYRQARGKERELVAAITRSGTSTYYADSVKGRFTISRDNAKNTVYLQMNSVKPEDTAVYYCATQYGRQRRAMYYWGQGTQVTVTS | high polyreactivity
22 | QVQLVESGGGLVQAGGSLRLSCAASGGIFDTYAMGWYRQAPGKERELVAAISSTGGSSYYADSVKGRFTISRDNAKNTVYLQMNSLKPEDTAVYYCNAVLARFWRYRRWEYDYWGQGTQVTVSS | high polyreactivity

Row | Sequence | polyreactivity (PSR sort gate)
23 | QVQLVESGGGLVQAGGSLRLSCAASGGTIHSYAMGLYRQANGKERDLVAAISGSGGSTYYADSVKGRFTISRDNAKNTFYLQMNSLKPEDTAVYYCAARDWGDGSEYYYWGQGTQVTVSS | high polyreactivity
24 | QVQLVESGGGLVQAGGSLRLSCAASGRIFTHNTMGWYRQAPGKERELVAAISSSGGSTYYADSVKGRFTISRDNAKNTVYLQMNSLKPDDTAVYYCNTLIKGRWIVVGYGYPGYDYWGQGTQVTVSS | high polyreactivity
25 | QVQLVESGGGLVQAGGSLRLTCDASGSTFYHNAMGWYRQAPGKERELVAAITTSGGSTYYADSVKWRFTISRDNAKNTVYLQMNSLKPEDSAVYYCNVYRPYLAPYDYWGQGTQVTVSS | low polyreactivity
26 | QVQLVESGGGLVQAGGSLRLSCAASGSTFRRYAMGWYRQAPGKERELVAAITSGGRTNYADSVKGRFTISRDNAKNTVYLQMNSLKPEDTAVYYCAARYIRGSYGMGYWGQGTQVTVSS | high polyreactivity
27 | QVQLVESGGGLVQAGGSLRLSCAASGRTFVFNGMGWYRPAPGKERELVAAINWDGGDTYYADSVKGRFTISRDNAKNTVYLQMNSLKPEDTAVYYCAAEGIFRYYTQATMEYWGQGTQVTVSS | low polyreactivity
28 | QVQLVESGGGLVQAGGSLRLSCAASGFIIKANAMGWYRQAPGKERELVASITFGGDSTYYADSVKGRFTISRDNAKNTVYLQMNSLKPEDTAVYYCNTRRRSYRTYYYWGQGTQVTVLS | low polyreactivity
29 | LVQLVESGGGLVQAGGSLRLSCAASGAIFYQDAQGCYRQAPGKERELVAAISKNGRSTYYADSVKGRFTISRDNAKNTVYLQMNSLKPEATAVYYCAARVLKGYYWGQGTQVTVSS | high polyreactivity
30 | QVQLVESGGGLVQAGGSLRLSCAASGRTFYYYAMGRYRQAPGKEREFVASISYSGARTYYADSVKGRFTISRDNAKNTVYLQMNSLKPEDTAVYYCAASWRSGRGTYGYWGQGTQVTVSS | high polyreactivity
31 | QVQLVESGGGLVQAGGSLRLSCAASGRILVYNTMGWSRQAPGKERELVAGIRRGGSTDYADSVKGRFTISRDNAKNTVYLQMNSLNAEDTAVYYCNARYSTGYTKLGYWGQGTQVTVSS | low polyreactivity
32 | QVQLVESGGGLVQAGGSLRLSCAASGRTVSNYAMGWSRQAPGKERELVSAISTGGTSTYYADSVKGRFTISRDYAKNTVYLQMNSLKPEDTAVYYCIAVGGWVTHWLLREGDYWGQGTQVTVSS | low polyreactivity
33 | QVQLVESAGGLVQAGGSLRLSCAASGTIFALYAMGWYRQAPGKERELVARITRGGGSTYYADSVKGRFTISRDNAKNTVYLQMNSLKPEDTAVYYCAAARWSQYRTWMNYWGQGTQVTVSS | high polyreactivity
34 | QVQLVESAGGLVQAGGSLRLSCADSGSIFRYYAMGWYRQAQGQERELVAAISYSGGRTYYADSVKGRFTISRDNAKNTVYLQMNSLKPEDTAVYYCNAGAGKRGYDYWGQGTQVTVSS | low polyreactivity
35 | QVQLVESGGGLVQAGGSLRLSCAASGSNFYRNAMGWYRQAPGKERELVAGIRWTGTRTYYADSVKGRFTISRDNAKNTVYLQMNSLKPEDTAVYYCNAVYSLSNAVDGDYWGQVTQVTVSS | high polyreactivity
36 | QVQLVESGGGLVQAGGSLRLSCAASGTFVTYMGWYRQAPGKERELVAVISASGDSVKGRFTISRDNAKNTVYLQMNSLNPEDTAVYYCARELYRRVWHHWAYWAAYDYWGQGTQVTVSS | low polyreactivity
37 | QVQLVESGGRLVQAGGSLRLSCAPSGNTFALNAMGWYRQAPGKERELVAAISRRGASTYYADSVKRRFTISRDYAKNTVYIQMNSLKPEDNALDYCAADSGPRVGFFYWGQGTQVTVSS | high polyreactivity
38 | QVQLVESGGGLVQAGGSLRLSCAASGRIFNKNAMGWYRQAPGKERELVAAISWSGTSTYYADSVKGRFTISRDTAKNTVYLQMHSLKPEDTAVYYCAAADFYYTGADDYWGQGTQVTVSS | high polyreactivity
39 | QVQLVESGGGLVQAGGSLRLICAASGFILRRYAMGWFRPAPGKEREFVAAIRYRGGNTYYADSVKGRFTLSRDTAKNTVYFQMNSLNPEDTAVYYCAADWSEKYEYWRQGTQVTVSS | high polyreactivity
40 | QVQLVDSGGGSVQAGGSLRLSCAASGSTFYENAMGWYRQAPGKERELVAAITWSGGRTYYADSVKGRFTISRDNAKNTVYLQMYSLKPEDTAVYYCNARERSRKFYYWGQGTQVTVSS | high polyreactivity
41 | QVHLVESGGGLVQAGGSLRLSCAASGSTFYYAMGLYRKAPGKERELVASITFSTGSTYYADSVKGRFTISRDNAKNTVLLQMNSLKPEDTAVYYCATGVDTFSLSVEHDSWGQGTQVTVSS | low polyreactivity
42 | QVQLVESGGGLVQAGGSLRLSCAASGRIFRYNTLGWYRQAPGKERELVAAINSSGGRTYYADSVKGRFTISRDNAKNTVYLQMNSLKPEDTAVYYCAAVIYVLSGPGYDYWGQGTQVTVSS | high polyreactivity
43 | QVQLVESGGGLVQAGGSLRLSCAASGYTLGPYAMGWYRQAPGKERELVATISSAGNTNYADSVKGRFTISRDNAKNTVYLQMNSLKPEDTAVYYCAAAIWYGFGGASGGTYYYWGQGTQVTVSS | high polyreactivity
